Data published in paper PMC12246476, “Enhancement of enzymatic activity by biomolecular condensates through pH buffering” (Nature Communications, 2025).

How the values were obtained:
[1] = target: T1, Aryl Alcohol Oxidase (AAOx) (Pleurotus eryngii, UniProt O94219); assay: absorbance of cinnamyl aldehyde at […] nm; assay type: biochemical; settings: 5 nM enzyme, 250 µM substrate, pH 5.5-7.5, 10 mM ionic strength Tris/Bis-Tris, 30 mM NaCl
T1 construct: gene aao; N-terminal His-tag, pET-15b, E. coli BL21-GOLD; FAD added during purification; IMAC and SEC
T1 sequence (O94219 22-593): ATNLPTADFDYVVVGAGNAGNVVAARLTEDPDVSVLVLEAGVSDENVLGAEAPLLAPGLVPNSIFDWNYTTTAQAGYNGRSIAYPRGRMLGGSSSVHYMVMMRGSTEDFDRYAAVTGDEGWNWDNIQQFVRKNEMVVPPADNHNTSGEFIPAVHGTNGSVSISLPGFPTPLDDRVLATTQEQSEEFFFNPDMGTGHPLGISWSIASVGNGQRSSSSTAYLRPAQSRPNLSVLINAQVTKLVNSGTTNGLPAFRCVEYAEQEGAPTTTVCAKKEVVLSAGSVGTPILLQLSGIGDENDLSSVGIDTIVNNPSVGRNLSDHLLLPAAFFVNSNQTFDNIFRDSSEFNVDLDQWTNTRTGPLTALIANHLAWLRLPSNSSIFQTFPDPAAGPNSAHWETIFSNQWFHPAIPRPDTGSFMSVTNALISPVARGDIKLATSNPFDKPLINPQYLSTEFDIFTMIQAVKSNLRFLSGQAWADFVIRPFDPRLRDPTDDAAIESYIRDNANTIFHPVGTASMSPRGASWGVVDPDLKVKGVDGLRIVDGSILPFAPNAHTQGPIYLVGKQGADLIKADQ

[2] = substrate: CCCC(=O)Oc1ccc2c(C)cc(=O)oc2c1; assay: fluorescence of released 4-methylumbelliferone, initial rates, Michaelis-Menten fit; assay type: biochemical, Geobacillus thermocatenulatus; settings: homogeneous enzyme, 0.5 µM, 24 mM Tris, 10 mM NaCl, pH 7.5, substrate solubility kept concentrations below the KM
From the text: fluorescence of released 4-methylumbelliferone, initial rates, Michaelis-Menten fit on BTL2 (Bacillus thermocatenulatus Lipase 2)

| Molecule | absorbance of cinnamyl aldehyde at 310 nm [1] | Km [2] | Vmax [2] | kcat [2] |
| --- | --- | --- | --- | --- |
| OC/C=C/c1ccccc1 [CAlc, Cinnamyl Alcohol] | measuring the rate of the oxidation reaction of CAlc to CAld catalyzed by AAOx |  |  |  |
| BTL2 (Bacillus thermocatenulatus Lipase 2) (Geobacillus thermocatenulatus) (protein, N-terminal His-tag, pET-15b, E. coli BL21-GOLD; IMAC and SEC) ASPRANDAPIVLLHGFTGWGREEMLGFKYWGGVRGDIEQWLNDNGYRTYTLAVGPLSSNWDRACEAYAQLVGGTVDYGAAHAAKHGHARFGRTYPGLLPELKRGGRVHIIAHSQGGQTARMLVSLLENGSQEEREYAKAHNVSLSPLFEGGHHFVLSVTTIATPHDGTTLVNMVDFTDRFFDLQKAVLKAAAVASNVPYTSQVYDFKLDQWGLRRQPGESFDHYFERLKRSPVWTSTDTARYDLSIPGAEKLNQWVQASPNTYYLSFSTERTHRGALTGNYYPELGMNAFSAVVCAPFLGSYRNEALGIDDRWLENDGIVNTVSMNGPKRGSSDRIVPYDGTLKKGVWNDMGTCNVDHLEVIGVDPNPSFDIRAFYLRLAEQLASLRP |  | 713 ± 281 µM | 126 µM/min | 4.3 ± 1.2 s⁻¹ |
